The results in this text go back to paper PMC3061877, “Comparison of the Frequency of Functional SH3 Domains with Different Limited Sets of Amino Acids Using mRNA Display” (PLoS ONE, 2011).

The test has as its target wild-type src SH3 domain (T7·tag/His6 construct) (UniProt P00523 81-140). The test is described as follows: other fluorescence titration; fluorescence perturbation assay; aliquots of peptide added to SH3 domain (0.5 µM) in PBS pH 7.4, 10 min at 20°C; excitation 278 nm, emission 350 nm. The note with it: both partners purified.

B1: VSL12 peptide (peptide)
peptide: VSLARRPLPPLP
notes: The methods of the fluorescence perturbation assay say only 'peptide VSL12'; also called free VSL12 peptide; peptide VSL12; source: synthetic peptide, bought: Invitrogen
B1 returned a Kd of 2.3 ± 0.47 µM.

Usually Kd stands for the constant that tells how readily two partners part at equilibrium.
